Results reported in doi:10.1101/2021.03.17.435802.
pKd: −log10 of the molar value.

Assays:
[1] = molecular target: catalytically active ACE2-Fc (human) (UniProt Q9BYF1); experiment: SPR
ACE2(HH:NN)-Fc (human) = ACE2(HH:NN)-Fc (human) (UniProt Q9BYF1); experiment: SPR

Angiotensin II (peptide)
pKd [1]: 6.93
pKd (ACE2(HH:NN)-Fc (human)): 5.89
